T1: MBP-tagged wild-type AtNBR1–PB1^1–94 (Arabidopsis thaliana, UniProt Q9SB64 1-94)
T1 construct: NBR1 autophagy receptor, Arabidopsis thaliana (AtNBR1), residues 1-94 (PB1 domain); Held on amylose resin in the pull-down; also called MBP–AtNBR1–PB1; source: E. coli BL21 (DE3), expressed as described for AtNBR1–PB1, buffer-exchanged; not shown: MBP, N-terminal, kept
T1 sequence (looked up): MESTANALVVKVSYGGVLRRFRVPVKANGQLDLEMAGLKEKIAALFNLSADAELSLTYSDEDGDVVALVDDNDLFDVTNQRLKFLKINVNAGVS

T2: MEKK3^43–127 (MEKK3–PB1) (UniProt Q99759 43-127)
T2 construct: MEKK3, residues 43-127 (PB1 domain); The His6 tag was kept for the gold-labelling and co-pelletation experiments; source: E. coli BL21 (DE3), expressed from pETM11, purified; not shown: His6, N-terminal, kept
T2 sequence (looked up): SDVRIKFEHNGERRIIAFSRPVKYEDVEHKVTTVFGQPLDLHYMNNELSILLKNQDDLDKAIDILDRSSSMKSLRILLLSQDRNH


Legend:
[1] = target: the molecule itself; test: co-sedimentation; sedimentation (pelletation) assay of single purified PB1 domains by ultracentrifugation; soluble and pellet fractions on SDS-PAGE
[2] = target: T1, MBP-tagged wild-type AtNBR1–PB1^1–94; test: pull-down; MBP–AtNBR1–PB1 on amylose resin, 4:1 molar excess of AtNBR1–PB1 (mutant); wash 15 mM HEPES pH 7.5, 500 mM NaCl; eluted with 30 mM maltose; SDS-PAGE; details: both partners purified
[3] = target: the molecule itself; test: co-sedimentation; co-pelleting assay: p62-PB1^1–122 with His6-tagged PB1 partner, 1 h on ice, 49,000 g, 4 °C, 30 min; pellet and supernatant on SDS-PAGE, Coomassie
MEKK3^43–127 (MEKK3–PB1) = target: T2, MEKK3^43–127 (MEKK3–PB1); test: not stated; binding of NBR1–PB1 to MEKK3 'also measured'; method not given; details: both partners purified

Binder	binding result [1]	further results
p62^1–102 (domain or fragment, human, UniProt Q13501 1-102, looked up, p62/SQSTM1, human, residues 1-102 (PB1 domain); also called p62 PB1 domain 1–102; source: expressed and purified) MASLTVKAYLLGKEDAAREIRRFSFCCSPEPEAEAEAAAGPGPCERLLSRVAALFPALRPGGFQAHYRDEDGDLVAFSSDEELTMAMSYVKDDIFRIYIKEK	binds	
TFG1^1–95 (Trk-fused gene 1, TFG1–PB1) (domain or fragment, human, UniProt Q92734 1-95, looked up, TFG1 (Trk-fused gene 1), human, residues 1-95 (PB1 domain); source: E. coli BL21 (DE3), purified (Ni-NTA, 3C protease cleavage, Talon resin); not shown: His6, N-terminal, cleaved; MBP, N-terminal, cleaved) MNGQLDLSGKLIIKAQLGEDIRRIPIHNEDITYDELVLMMQRVFRGKLLSNDEVTIKYKDEDGDLITIFDSSDLSFAIQCSRILKLTLFVNGQPR	binds	
AtNBR1^1–94 (AtNBR1–PB1) (domain or fragment, Arabidopsis thaliana, UniProt Q9SB64 1-94, looked up, NBR1 autophagy receptor, Arabidopsis thaliana (AtNBR1), residues 1-94 (PB1 domain); Forms helical filaments; also called AtNBR1–PB1^1–94; NBR1^1–94 from Arabidopsis thaliana; source: E. coli BL21 (DE3), purified (Ni-NTA, 3C protease cleavage, Talon resin); not shown: His6, N-terminal, cleaved; MBP, N-terminal, cleaved) MESTANALVVKVSYGGVLRRFRVPVKANGQLDLEMAGLKEKIAALFNLSADAELSLTYSDEDGDVVALVDDNDLFDVTNQRLKFLKINVNAGVS	binds	binding result [2]: binds
p62-PB1^1–122 (p62/SQSTM1 residues 1–122) (domain or fragment, human, UniProt Q13501 1-122, looked up, Forms helical filaments; also called p62-PB1 filaments; source: E. coli BL21 (DE3), purified (Ni-NTA, 3C protease cleavage, Talon resin); not shown: His6, N-terminal, cleaved; MBP, N-terminal, cleaved) MASLTVKAYLLGKEDAAREIRRFSFCCSPEPEAEAEAAAGPGPCERLLSRVAALFPALRPGGFQAHYRDEDGDLVAFSSDEELTMAMSYVKDDIFRIYIKEKKECRRDHRPPCAQEAPRNMV		binding result [3]: binds
NBR1^1–85 (human NBR1–PB1) (domain or fragment, UniProt Q14596 1-85, looked up, NBR1, human, residues 1-85 (PB1 domain); The His6 tag was kept for the gold-labelling and co-pelletation experiments; also called HsNBR1^1–85; wild-type NBR1; source: E. coli BL21 (DE3), expressed from pETM11, purified; not shown: His6, N-terminal, kept) MEPQVTLNVTFKNEIQSFLVSDPENTTWADIEAMVKVSFDLNTIQIKYLDEENEEVSINSQGEYEEALKMAVKQGNQLQMQVHEG		Kd (MEKK3^43–127 (MEKK3–PB1)): 13.3 µM
